Two substances from patent US20150140009A1 can be followed below.

For experiment [1], the target named is TNFR2/p75 on BM-derived EPCs of TNFR1/p55 knockout mice (mouse) (UniProt P25119). Kind of experiment: cell-based or functional assay.
Experiment [2] has as its target TNF-α in conditioned medium of 1 Gy γ-irradiated mouse BM-derived EPCs (IR-CM) (mouse) (UniProt P06804). Kind of experiment: cell-based or functional assay.
UniProt P06804, sequence (P06804 80-235 limits assumed): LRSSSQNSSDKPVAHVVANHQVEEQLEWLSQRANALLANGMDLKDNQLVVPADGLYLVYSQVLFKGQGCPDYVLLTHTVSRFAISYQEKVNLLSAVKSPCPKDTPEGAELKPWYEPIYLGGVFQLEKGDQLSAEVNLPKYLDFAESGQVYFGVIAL

UniProt P25119, sequence (P25119 23-474): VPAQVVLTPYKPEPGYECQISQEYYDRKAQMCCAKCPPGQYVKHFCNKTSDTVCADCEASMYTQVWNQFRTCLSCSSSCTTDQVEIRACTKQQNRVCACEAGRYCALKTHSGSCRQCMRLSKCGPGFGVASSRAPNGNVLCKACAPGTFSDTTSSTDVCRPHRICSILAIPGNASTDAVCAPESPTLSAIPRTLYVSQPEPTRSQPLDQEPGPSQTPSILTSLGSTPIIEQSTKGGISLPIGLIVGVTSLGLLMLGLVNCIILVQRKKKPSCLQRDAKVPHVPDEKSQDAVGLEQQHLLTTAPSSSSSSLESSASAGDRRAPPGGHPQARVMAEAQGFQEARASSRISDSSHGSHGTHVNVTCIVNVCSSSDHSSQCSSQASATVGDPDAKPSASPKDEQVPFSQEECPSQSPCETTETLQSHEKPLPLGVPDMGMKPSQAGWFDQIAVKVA

“mouse recombinant TNF-α (Cat. 34-8321-82; eBiosciences) (from UniProt P06804 80-235) (ligand)”: in experiment [1], the mean p-H2AX foci/cell count, naïve p55KO EPCs, 24 h with TNF (100 pg/ml, 1, 40 ng/ml), all cells counted; control 0.98 was 2.8 to 3.9 foci/cell.

In experiment [2], “TNF-α neutralizing antibody (Cat. 506309, BioLegend)” returned a formation of p-H2AX foci in EPCs treated with γ-IR conditioned media after neutralizing TNF of 2 fold; a mean p-H2AX foci/cell, naïve WT EPCs, 24 h treatment with 3-day IR-CM treated with TNF-α neutralizing antibody of 3.2 foci/cell; a mean p-H2AX foci/cell, naïve WT EPCs, 24 h treatment with 5-day IR-CM treated with TNF-α neutralizing antibody of 3.5 foci/cell; a mean p-H2AX foci/cell, naïve WT EPCs, 24 h treatment with 1 h IR-CM treated with TNF-α neutralizing antibody of 2.4 foci/cell. In experiment [2], this substance returned a mean p-H2AX foci/cell, naïve WT EPCs, 24 h treatment with 5 h IR-CM treated with TNF-α neutralizing antibody of 4.3 foci/cell; a mean p-H2AX foci/cell, naïve WT EPCs, 24 h treatment with 24 h IR-CM treated with TNF-α neutralizing antibody of 5 foci/cell; a mean p-H2AX foci/cell, naïve p55KO EPCs, 24 h treatment with 3-day IR-CM treated with TNF-α neutralizing antibody of 4.9 foci/cell; a mean p-H2AX foci/cell, naïve p55KO EPCs, 24 h treatment with 5-day IR-CM treated with TNF-α neutralizing antibody of 3.5 foci/cell. In addition, in experiment [2], the mean p-H2AX foci/cell, naïve p55KO EPCs, 24 h treatment with 1 h IR-CM treated with TNF-α neutralizing antibody amounted to 3.7 foci/cell; the mean p-H2AX foci/cell, naïve p55KO EPCs, 24 h treatment with 5 h IR-CM treated with TNF-α neutralizing antibody was 3.6 foci/cell; the mean p-H2AX foci/cell, naïve p55KO EPCs, 24 h treatment with 24 h IR-CM treated with TNF-α neutralizing antibody was found to be 4.2 foci/cell.
